Here are results for six molecules from patent publication US20250340660A1 (published 2025).

As a reminder, the EC50 is the concentration that produces a half-maximal response. The low end stands for a more potent agent, the high end for a less potent agent.

One experiment concerns the target T1, mouse CD30L (mouse, UniProt P32972 68-239, limits assumed).
T1 construct: also called rmCD30L
T1 sequence (looked up): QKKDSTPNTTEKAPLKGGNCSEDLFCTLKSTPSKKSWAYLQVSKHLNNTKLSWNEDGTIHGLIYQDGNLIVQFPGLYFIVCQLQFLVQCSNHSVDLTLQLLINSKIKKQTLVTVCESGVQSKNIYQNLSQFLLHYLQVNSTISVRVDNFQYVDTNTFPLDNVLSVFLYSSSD
The experiment is described as follows: screening of a rat campaign with mouse CD30L antigen.

Experiment [1] addresses T2, human CD30L expressed on cells (B16-huCD30L; HEK293 cells over-expressing TNFSF8) (human, UniProt P32971 1-234).
T2 sequence: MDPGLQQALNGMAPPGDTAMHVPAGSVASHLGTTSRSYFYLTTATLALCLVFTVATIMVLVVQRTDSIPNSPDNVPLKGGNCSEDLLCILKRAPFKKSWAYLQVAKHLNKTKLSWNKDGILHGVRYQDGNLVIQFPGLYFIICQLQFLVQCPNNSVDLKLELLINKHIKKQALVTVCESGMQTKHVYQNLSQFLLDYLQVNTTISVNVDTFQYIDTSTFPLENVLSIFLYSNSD
The experiment is described as follows: cell-based or functional assay.

The target of experiment [2] is T3, cynomolgus CD30L expressed on HEK293 cells (cynomolgus, UniProt A0A7N9CVX7 1-234).
T3 sequence: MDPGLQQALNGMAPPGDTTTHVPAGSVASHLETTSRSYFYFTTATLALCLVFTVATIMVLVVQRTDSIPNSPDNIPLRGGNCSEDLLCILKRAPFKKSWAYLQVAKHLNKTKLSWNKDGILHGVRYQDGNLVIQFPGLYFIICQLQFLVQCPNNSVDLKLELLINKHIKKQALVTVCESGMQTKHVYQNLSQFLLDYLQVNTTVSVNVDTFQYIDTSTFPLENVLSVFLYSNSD
The experiment is described as follows: cell-based or functional assay.

Experiment [3] concerns the target T4, human CD30L expressed on cells (human, UniProt P32971 1-234).
T4 construct: whole, on cells; The assay field of each row tells which cells carried it; also called huCD30L; B16-huCD30L cells
T4 sequence (looked up): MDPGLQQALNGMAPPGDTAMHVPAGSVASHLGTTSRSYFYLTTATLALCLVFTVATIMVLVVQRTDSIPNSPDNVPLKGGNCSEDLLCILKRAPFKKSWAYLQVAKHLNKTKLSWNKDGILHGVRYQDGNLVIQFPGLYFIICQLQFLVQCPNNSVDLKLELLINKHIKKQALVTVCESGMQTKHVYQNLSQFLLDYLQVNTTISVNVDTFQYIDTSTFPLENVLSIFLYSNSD
Description: flow cytometry, labelled antibody on PMA/ionomycin-stimulated primary lymphocytes, Patient 1 (CD, #04-021).
Description: (§1) Peripheral blood mononuclear cells (PBMCs) were isolated from freshly collected whole blood from Ulcerative Colitis (UC) and Crohn's Disease (CD) patients, by conventional density gradient centrifugation. […] After washing to remove unbound antibodies, the cells were fixed in a paraformaldehyde solution and analyzed by flow cytometry to quantify cell surface antibody binding.

Experiment [4] deals with T4, human CD30L expressed on cells. Description: flow cytometry, labelled antibody on PMA/ionomycin-stimulated primary lymphocytes, Patient 2 (UC, #03-041). For orientation: In flow cytometry, cells or beads pass a laser one at a time.
Description: as §1
For experiment [5] the target is unchanged. Description: flow cytometry, labelled antibody on PMA/ionomycin-stimulated primary lymphocytes, Patient 3 (UC, #02-180).
Description: as §1
For experiment [6] the target is unchanged. Description: flow cytometry, labelled antibody on PMA/ionomycin-stimulated primary lymphocytes, Patient 4 (CD, #01-051).
Description: as §1
For experiment [7], the target named is T5, recombinant human CD30L protein (human, UniProt P32971 63-234, limits assumed).
T5 construct: Used for ELISA, BLI, Carterra, KinExA; also called rhCD30L; purified human CD30L
T5 sequence (looked up): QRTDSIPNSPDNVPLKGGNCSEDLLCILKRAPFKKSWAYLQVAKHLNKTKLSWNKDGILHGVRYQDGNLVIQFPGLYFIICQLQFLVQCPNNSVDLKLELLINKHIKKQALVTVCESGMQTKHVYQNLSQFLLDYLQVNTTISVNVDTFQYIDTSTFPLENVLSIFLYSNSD
Description: KinExA, Fab in solution; reference: Fab of Ref1. Background: A kinetic exclusion assay measures how much of one partner remains free in solution.
Description: A KD analysis requires immobilization of one interaction partner to a solid phase which is then used as a probe to capture the other interaction partner, the constant binding partner (Fab). […] The solutions are then briefly exposed to the solid phase and a portion of free Fab is captured. The captured Fab is then labeled with a fluorescent secondary molecule. The short contact time with the solid phase is less than the time needed for dissociation of the pre-formed complex in solution, thus competition between the solution and the solid phase titrated binding partner is kinetically excluded.

For experiment [8], the target named is T2, human CD30L expressed on cells …. Description: flow cytometry, blocking of recombinant CD30-Fc binding to CD30L-expressing cells; reference Ref1.
The target of experiment [9] is T3, cynomolgus CD30L expressed on HEK293 …. The description is as above.

B1: clone 111, function blocking rat anti-mouse CD30L antibody (antibody, mouse IgG2a, V domains shown)
VH: EVKLQQSGDELVRPGASVKMSCKASGYTFTDYAMHWVKQSPGQGLEWIGSIIPLIDTTSYNQKFKGKATLTADKSSNTAYMELSRLTSEDSAVYYCARLGSRYLEGFDYWGQGVMVTVSS
VL: DIQMTQSPSSMSASLGDTVTINCLASQDIGNYLSWYQQKPGKSPKLMIYGATNLEDGVPSRFSGSGSGSDYSLTINSLGYDDEGIYHCHQYYEYPLTFGSGTKLEIK
notes: Rat antibody as found in the screen
For the molecule B1, the binding result with mouse CD30L is on record as “binds”.

B2: anti-CD30L antibody Clone 2 (parental) (antibody, V domains shown)
VH: EVQLVESGGGLVQPGRSLRLSCAASGFNFDDYAMHWVRQAPGKGLEWVSGISWRSGNIGYAGSVKGRFTISRDNAKNSLYLQMNSLRPEDSALYYCAKDKGIGFNWNYEGFDYWGQGTLVTVSS
VL: DIQMTQSPSSLSASVGDRVTITCRASQGISNHLAWFQQKPGKAPKSLIYAASSLQSGVPSKFSGSGSGTDFTLTISSLQPEDFATYYCQQYVTYPLTFGGGTKVEIK
For B2, the entries for the “fold better IC50 than Ref1, IL-8 release dual cell assay” value in [1] and in experiment [2] were 2 fold and 2.6 fold, respectively.

B3: Clone 2, fluorescently labeled (format not stated in Table 7) (antibody, V domains shown)
VH: EVQLVESGGGLVQPGRSLRLSCAASGFNFDDYAMHWVRQAPGKGLEWVSGISWRSGNIGYAGSVKGRFTISRDNAKNSLYLQMNSLRPEDSALYYCAKDKGIGFNWNYEGFDYWGQGTLVTVSS
VL: DIQMTQSPSSLSASVGDRVTITCRASQGISNHLAWFQQKPGKAPKSLIYAASSLQSGVPSKFSGSGSGTDFTLTISSLQPEDFATYYCQQYVTYPLTFGGGTKVEIK
modifications: fluorescent label (site not stated)
notes: The variable domains are those of parental clone 2
For the molecule B3, the EC50 in [3] amounted to 2.4 nM; in experiment [4], 1.55 nM; in experiment [5] it was 1.71 nM; in [6], 1.72 nM.

B4: Fab of anti-CD30L clone 2 germlined (Fab, V domains shown)
VH: EVQLVESGGGLVQPGRSLRLSCAASGFNFDDYAMHWVRQAPGKGLEWVSGISWRSGNIGYADSVKGRFTISRDNAKNSLYLQMNSLRAEDTALYYCAKDKGIGFNWNYEGFDYWGQGTLVTVSS
VL: DIQMTQSPSSLSASVGDRVTITCRASQGISNHLAWFQQKPGKAPKSLIYAASSLQSGVPSRFSGSGSGTDFTLTISSLQPEDFATYYCQQYVTYPLTFGGGTKVEIK
notes: Fab; also called germlined-clone-2 Fab; germlined-clone-2-Fab
Take B4: the “fold KD against the reference 1 anti-CD30L” value in [7] was found to be 4.2 fold.

B5: anti-CD30L antibody clone 2 germlined (antibody, V domains shown)
VH: EVQLVESGGGLVQPGRSLRLSCAASGFNFDDYAMHWVRQAPGKGLEWVSGISWRSGNIGYADSVKGRFTISRDNAKNSLYLQMNSLRAEDTALYYCAKDKGIGFNWNYEGFDYWGQGTLVTVSS
VL: DIQMTQSPSSLSASVGDRVTITCRASQGISNHLAWFQQKPGKAPKSLIYAASSLQSGVPSRFSGSGSGTDFTLTISSLQPEDFATYYCQQYVTYPLTFGGGTKVEIK
notes: also called germlined clone 2
With B5, the “fold better IC50 than Ref1” value in experiment [8] was determined as 2.74 fold; in experiment [9], 2.13 fold.

B6: Clone 1, fluorescently labeled (format not stated in Table 7) (antibody, V domains shown)
VH: QVQLQESGPGLVKPSETLSLTCTVSGGSISGYYWSWIRQPPVKGLEWIGYIFYSGYTKYNPSLKSRVTISVDTSKNQFSLKLSSVTAADTAVYYCARDRWDFDYWGQGALVTVSS
VL: AIQMTQSPSYLSASVGDRVTIACRASQGIRNNLGWYQQKPGKAPKLLIYAESSLQSGVPSRFSGSGSGTDFTLTISSLQPEDFATYYCLQDFNYPYTFGQGTKLEIK
modifications: fluorescent label (site not stated)
notes: The variable domains are those of parental clone 1
Turning to B6, the EC50 in [3] is 7.45 nM; in experiment [4] it was 5.43 nM; in experiment [5], 5.57 nM; in [6], 4.53 nM.
